# Target: recombinant human TNFα (RDI) (UniProt P01375)
# Sequence (P01375 77-233): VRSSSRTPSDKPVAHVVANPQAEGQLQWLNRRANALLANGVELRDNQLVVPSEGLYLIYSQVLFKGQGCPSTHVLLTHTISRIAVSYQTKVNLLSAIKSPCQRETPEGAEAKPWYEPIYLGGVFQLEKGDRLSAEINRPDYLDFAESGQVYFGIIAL
# Chain of Plasmin (P00747 20-580): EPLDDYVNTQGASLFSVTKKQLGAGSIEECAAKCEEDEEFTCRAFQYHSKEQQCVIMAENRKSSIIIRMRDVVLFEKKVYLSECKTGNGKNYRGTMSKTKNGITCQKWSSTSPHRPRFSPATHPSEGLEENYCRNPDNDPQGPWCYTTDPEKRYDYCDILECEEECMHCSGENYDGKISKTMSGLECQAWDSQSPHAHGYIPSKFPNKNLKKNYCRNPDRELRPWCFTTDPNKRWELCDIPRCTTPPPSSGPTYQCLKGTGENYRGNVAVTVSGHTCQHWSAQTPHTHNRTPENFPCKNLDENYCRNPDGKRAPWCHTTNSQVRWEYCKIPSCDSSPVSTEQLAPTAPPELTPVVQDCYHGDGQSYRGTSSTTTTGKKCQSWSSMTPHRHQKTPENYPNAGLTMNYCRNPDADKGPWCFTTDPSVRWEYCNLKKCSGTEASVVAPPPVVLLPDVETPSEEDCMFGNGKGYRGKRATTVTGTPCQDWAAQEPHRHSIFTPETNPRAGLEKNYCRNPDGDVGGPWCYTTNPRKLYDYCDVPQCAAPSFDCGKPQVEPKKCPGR
# Chain of Plasmin (P00747 581-810): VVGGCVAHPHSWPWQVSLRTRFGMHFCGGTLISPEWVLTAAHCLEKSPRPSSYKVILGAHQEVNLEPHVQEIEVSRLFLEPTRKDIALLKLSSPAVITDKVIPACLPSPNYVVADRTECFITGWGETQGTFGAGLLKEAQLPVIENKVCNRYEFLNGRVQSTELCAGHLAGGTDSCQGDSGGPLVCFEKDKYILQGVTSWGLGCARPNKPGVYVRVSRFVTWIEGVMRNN
# Chain of MMP12 (P39900 106-470): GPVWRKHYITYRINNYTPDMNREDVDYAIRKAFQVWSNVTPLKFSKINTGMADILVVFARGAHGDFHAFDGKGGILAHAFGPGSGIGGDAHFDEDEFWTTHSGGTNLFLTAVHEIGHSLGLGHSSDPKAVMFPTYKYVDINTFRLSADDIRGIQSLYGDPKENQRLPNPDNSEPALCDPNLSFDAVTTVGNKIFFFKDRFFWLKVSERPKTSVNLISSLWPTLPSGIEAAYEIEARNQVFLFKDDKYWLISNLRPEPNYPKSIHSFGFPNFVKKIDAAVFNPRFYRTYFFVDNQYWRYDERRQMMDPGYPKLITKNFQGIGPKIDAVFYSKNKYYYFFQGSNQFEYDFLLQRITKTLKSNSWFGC
Substance,inactivation of TNFα (L929 cytotoxicity bioassay after overnight digestion),log reduction in TNFα activity (L929 cytotoxicity bioassay after overnight digestion)
Urokinase,Urokinase (under: Proteases that did not inactivate TNF),
Plasmin,Plasmin (under: Proteases that did not inactivate TNF),
Enterokinase,Enterokinase (under: Proteases that did not inactivate TNF),
ELASTASE,,ELASTASE (1.45)
HIV Protease,HIV Protease (under: Proteases that did not inactivate TNF),
ADAM10,ADAM10 (under: Proteases that did not inactivate TNF),
TRYPSIN,,TRYPSIN (2.3)
Furin,Furin (under: Proteases that did not inactivate TNF),
CHYMOTRYPSIN,,CHYMOTRYPSIN (2.74)
TACE,TACE (under: Proteases that did not inactivate TNF),
MMP12,,MMP12 (0.65)
MT1-MMP,,MT1-MMP (0.86)
Tryptase,,Tryptase (0.62)
MT5-MMP,MT5-MMP (under: Proteases that did not inactivate TNF),
Kallikrein5,Kallikrein5 (under: Proteases that did not inactivate TNF),
MMP3,MMP3 (under: Proteases that did not inactivate TNF),
